Assay results taken from US20030077679.

T1: human EID-1 (SEQ ID NO:4) expressed in E. coli as an N-terminal HIS6 fusion
T1 chain: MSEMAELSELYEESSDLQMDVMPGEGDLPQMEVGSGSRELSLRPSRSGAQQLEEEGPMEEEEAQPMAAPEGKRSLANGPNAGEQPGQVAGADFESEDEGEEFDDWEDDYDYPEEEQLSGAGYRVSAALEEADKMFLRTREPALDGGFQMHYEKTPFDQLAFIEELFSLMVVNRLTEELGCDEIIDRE

T2: human EID-1 with an N-terminal V5-HIS6 tag (in p423CDN)
T2 chain: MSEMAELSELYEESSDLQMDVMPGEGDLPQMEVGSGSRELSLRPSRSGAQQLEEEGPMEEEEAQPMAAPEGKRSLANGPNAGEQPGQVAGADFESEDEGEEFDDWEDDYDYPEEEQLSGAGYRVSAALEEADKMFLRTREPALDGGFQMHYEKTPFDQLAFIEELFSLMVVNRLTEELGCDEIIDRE


Experiments:
[1] = target: T1, human EID-1 (SEQ ID NO:4) expressed in …
[2] = target: T2, human EID-1 with an N-terminal V5-HIS6 …

Protein	in vitro kinase assay with 33P-ATP, then LC-ES MS/MS of the Asp-N digest [1]	in vitro kinase assay with gamma-33P-ATP, radioactive band on Phosphorimager [2]
recombinant hDYRK3 (SEQ ID NO: 2) as used in Example 4 (protein) MGGTARGPGRKDAGPPGAGLPPQQRRLGDGVDTFMMIDETKCPPCSNVLCNPSEPPPPRRLNMTTEQFTGDHTQHFLDGGEMKVEQLFQEFGNRKSNTIQSDGISDSEKCSPTVSQGKSSDCLNTVKSNSSSKAPKVVPLTPEQALKQYKHHLTAYEKLEIINYPEIYFVGPNAKKRHGVIGGPNNGGYDDADGAYIHVPRDHLAYRYEVLKIIGKGSFGQVARVYDHKLRQYVALKMVRNEKRFHRQAAEEIRILEHLKKQDKTGSMNVIHMLESFTFRNHVCMAFELLSIDLYELIKKNKFQGFSVQLVRKFAQSILQSLDALHKNKIIHCDLKPENILLKHHGRSSTKVIDFGSSCFEYQKLYTYIQSRFYRAPEIILGSRYSTPIDIWSFGCILAELLTGQPLFPGEDEGDQLACMMELLGMPPPKLLEQSKRAKYFINSKGIPRYCSVTTQADGRVVLVGGRSRRGKKRGPPGSKDWGTALKGCDDYLFIEFLKRCLHWDPSARLTPAQALRHPWISKSVPRPLTTIDKVSGKRVVNPASAFQGLGSKLPPVVGIANKLKANLMSETNGSIPLCSVLPKLIS	there was a radioactive band that migrated at the same position as the EID-1 protein following electrophoresis	–
human DYRK3 catalytic domain (amino acids 142-526 of SEQ ID NO:2) with an N-terminal GST-tag and C-terminal HIS6-tag (protein) PEQALKQYKHHLTAYEKLEIINYPEIYFVGPNAKKRHGVIGGPNNGGYDDADGAYIHVPRDHLAYRYEVLKIIGKGSFGQVARVYDHKLRQYVALKMVRNEKRFHRQAAEEIRILEHLKKQDKTGSMNVIHMLESFTFRNHVCMAFELLSIDLYELIKKNKFQGFSVQLVRKFAQSILQSLDALHKNKIIHCDLKPENILLKHHGRSSTKVIDFGSSCFEYQKLYTYIQSRFYRAPEIILGSRYSTPIDIWSFGCILAELLTGQPLFPGEDEGDQLACMMELLGMPPPKLLEQSKRAKYFINSKGIPRYCSVTTQADGRVVLVGGRSRRGKKRGPPGSKDWGTALKGCDDYLFIEFLKRCLHWDPSARLTPAQALRHPWISKSVP	–	There is a radioactive band that migrates at the same position as the EID-1 protein in the western blot while this band is absent in the vector alone lane
human DYRK2 (SEQ ID NO:6) with an N-terminal HIS6-tag (protein) MNDHLHVGSHAHGQIQVQQLFEDNSNKRTVLTTQPNGLTTVGKTGLPVVPERQLDSIHRRQGSSTSLKSMEGMGKVKATPMTPEQAMKQYMQKLTAFEHHEIFSYPEIYFLGLNAKKRQGMTGGPNNGGYDDDQGSYVQVPHDHVAYRYEVLKVIGKGSFGQVVKAYDHKVHQHVALKMVRNEKRFHRQAAEEIRILEHLRKQDKDNTMNVIHMLENFTFRNHICMTFELLSMNLYELIKKNKFQGFSLPLVRKFAHSILQCLDALHKNRIIHCDLKPENILLKQQGRSGIKVIDFGSSCYEHQRVYTYIQSRFYRAPEVILGARYGMPIDMWSLGCILAELLTGYPLLPGEDEGDQLACMIELLGMPSQKLLDASKRAKNFVSSKGYPRYCTVTTLSDGSVVLNGGRSRRGKLRGPPESREWGNALKGCDDPLFLDFLKQCLEWDPAVRMTPGQALRHPWLRRRLPKPPTGEKTSVKRITESTGAITSISKLPPPSSSASKLRTNLAQMTDANGNIQQRTVLPKLVS	–	There is a radioactive band that migrates at the same position as the EID-1 protein in the western blot while this band is absent in the vector alone lane
